Data: patent US20180273587A1 (AILERON THERAPEUTICS, published 2018)
Positions of bridges follow the written chain, without caps; N, C: chain ends. Non-standard residues stand in square brackets, D forms with d. Bip = N[C@@H](Cc1ccc(-c2ccccc2)cc1)C(=O)O; αMeW = C[C@](N)(Cc1c[nH]c2ccccc12)C(=O)O; R8 = C=CCCCCCC[C@@](C)(N)C(=O)O; αMeL = CC(C)C[C@](C)(N)C(=O)O; S5 = C=CCCC[C@](C)(N)C(=O)O; Ac6c = NC1(C(=O)O)CCCCC1; Ac5c = NC1(C(=O)O)CCCC1; Aib = CC(C)(N)C(=O)O

B1: SEQ ID NO: 1724 (peptide)
peptide: Ac-FWIAAALR[R8]IGDAFN[S5]YYA-NH2
modifications: staple 9-16
SMILES: CC[C@H](C)[C@H](NC(=O)[C@H](Cc1c[nH]c2ccccc12)NC(=O)[C@H](Cc1ccccc1)NC(C)=O)C(=O)N[C@@H](C)C(=O)N[C@@H](C)C(=O)N[C@@H](C)C(=O)N[C@@H](CC(C)C)C(=O)N[C@@H](CCCNC(=N)N)C(=O)N[C@]1(C)CCCCCCC=CCCC[C@@](C)(C(=O)N[C@@H](Cc2ccc(O)cc2)C(=O)N[C@@H](Cc2ccc(O)cc2)C(=O)N[C@@H](C)C(N)=O)NC(=O)[C@H](CC(N)=O)NC(=O)[C@H](Cc2ccccc2)NC(=O)[C@H](C)NC(=O)[C@H](CC(=O)O)NC(=O)CNC(=O)[C@H]([C@@H](C)CC)NC1=O
B2: SEQ ID NO: 1725 (peptide)
peptide: Ac-IDIAAALR[R8]IGDAFN[S5]YYA-NH2
modifications: staple 9-16
SMILES: CC[C@H](C)[C@H](NC(C)=O)C(=O)N[C@@H](CC(=O)O)C(=O)N[C@H](C(=O)N[C@@H](C)C(=O)N[C@@H](C)C(=O)N[C@@H](C)C(=O)N[C@@H](CC(C)C)C(=O)N[C@@H](CCCNC(=N)N)C(=O)N[C@]1(C)CCCCCCC=CCCC[C@@](C)(C(=O)N[C@@H](Cc2ccc(O)cc2)C(=O)N[C@@H](Cc2ccc(O)cc2)C(=O)N[C@@H](C)C(N)=O)NC(=O)[C@H](CC(N)=O)NC(=O)[C@H](Cc2ccccc2)NC(=O)[C@H](C)NC(=O)[C@H](CC(=O)O)NC(=O)CNC(=O)[C@H]([C@@H](C)CC)NC1=O)[C@@H](C)CC
B3: SEQ ID NO: 1726 (peptide)
peptide: Ac-IRIAAALR[R8]IGDAFN[S5]YYA-NH2
modifications: staple 9-16
SMILES: CC[C@H](C)[C@H](NC(C)=O)C(=O)N[C@@H](CCCNC(=N)N)C(=O)N[C@H](C(=O)N[C@@H](C)C(=O)N[C@@H](C)C(=O)N[C@@H](C)C(=O)N[C@@H](CC(C)C)C(=O)N[C@@H](CCCNC(=N)N)C(=O)N[C@]1(C)CCCCCCC=CCCC[C@@](C)(C(=O)N[C@@H](Cc2ccc(O)cc2)C(=O)N[C@@H](Cc2ccc(O)cc2)C(=O)N[C@@H](C)C(N)=O)NC(=O)[C@H](CC(N)=O)NC(=O)[C@H](Cc2ccccc2)NC(=O)[C@H](C)NC(=O)[C@H](CC(=O)O)NC(=O)CNC(=O)[C@H]([C@@H](C)CC)NC1=O)[C@@H](C)CC
B4: SEQ ID NO: 1697 (peptide)
peptide: Ac-IWIAQA[Bip]R[R8]IGDAFN[S5]YYA-NH2
modifications: staple 9-16
SMILES: CC[C@H](C)[C@H](NC(C)=O)C(=O)N[C@@H](Cc1c[nH]c2ccccc12)C(=O)N[C@H](C(=O)N[C@@H](C)C(=O)N[C@@H](CCC(N)=O)C(=O)N[C@@H](C)C(=O)N[C@@H](Cc1ccc(-c2ccccc2)cc1)C(=O)N[C@@H](CCCNC(=N)N)C(=O)N[C@]1(C)CCCCCCC=CCCC[C@@](C)(C(=O)N[C@@H](Cc2ccc(O)cc2)C(=O)N[C@@H](Cc2ccc(O)cc2)C(=O)N[C@@H](C)C(N)=O)NC(=O)[C@H](CC(N)=O)NC(=O)[C@H](Cc2ccccc2)NC(=O)[C@H](C)NC(=O)[C@H](CC(=O)O)NC(=O)CNC(=O)[C@H]([C@@H](C)CC)NC1=O)[C@@H](C)CC
notes: also called Ac-IWIAQABipR$r8IGDAFN$YYA-NH2
B5: SEQ ID NO: 1703 (peptide)
peptide: Ac-I[αMeW]IAQALR[R8]IGDAFN[S5]YYA-NH2
modifications: staple 9-16
SMILES: CC[C@H](C)[C@H](NC(C)=O)C(=O)N[C@@](C)(Cc1c[nH]c2ccccc12)C(=O)N[C@H](C(=O)N[C@@H](C)C(=O)N[C@@H](CCC(N)=O)C(=O)N[C@@H](C)C(=O)N[C@@H](CC(C)C)C(=O)N[C@@H](CCCNC(=N)N)C(=O)N[C@]1(C)CCCCCCC=CCCC[C@@](C)(C(=O)N[C@@H](Cc2ccc(O)cc2)C(=O)N[C@@H](Cc2ccc(O)cc2)C(=O)N[C@@H](C)C(N)=O)NC(=O)[C@H](CC(N)=O)NC(=O)[C@H](Cc2ccccc2)NC(=O)[C@H](C)NC(=O)[C@H](CC(=O)O)NC(=O)CNC(=O)[C@H]([C@@H](C)CC)NC1=O)[C@@H](C)CC
notes: also called Ac-IAmWIAQALR$r8IGDAFN$YYA-NH2
B6: SEQ ID NO: 1704 (peptide)
peptide: Ac-I[Aib]IAQALR[R8]IGDAFN[S5]YYA-NH2
modifications: staple 9-16
SMILES: CC[C@H](C)[C@H](NC(C)=O)C(=O)NC(C)(C)C(=O)N[C@H](C(=O)N[C@@H](C)C(=O)N[C@@H](CCC(N)=O)C(=O)N[C@@H](C)C(=O)N[C@@H](CC(C)C)C(=O)N[C@@H](CCCNC(=N)N)C(=O)N[C@]1(C)CCCCCCC=CCCC[C@@](C)(C(=O)N[C@@H](Cc2ccc(O)cc2)C(=O)N[C@@H](Cc2ccc(O)cc2)C(=O)N[C@@H](C)C(N)=O)NC(=O)[C@H](CC(N)=O)NC(=O)[C@H](Cc2ccccc2)NC(=O)[C@H](C)NC(=O)[C@H](CC(=O)O)NC(=O)CNC(=O)[C@H]([C@@H](C)CC)NC1=O)[C@@H](C)CC
notes: also called Ac-IAibIAQALR$r8IGDAFN$YYA-NH2
B7: SEQ ID NO: 1708 (peptide)
peptide: Ac-IWIA[Aib]ALR[R8]IGDAFN[S5]YYA-NH2
modifications: staple 9-16
SMILES: CC[C@H](C)[C@H](NC(C)=O)C(=O)N[C@@H](Cc1c[nH]c2ccccc12)C(=O)N[C@H](C(=O)N[C@@H](C)C(=O)NC(C)(C)C(=O)N[C@@H](C)C(=O)N[C@@H](CC(C)C)C(=O)N[C@@H](CCCNC(=N)N)C(=O)N[C@]1(C)CCCCCCC=CCCC[C@@](C)(C(=O)N[C@@H](Cc2ccc(O)cc2)C(=O)N[C@@H](Cc2ccc(O)cc2)C(=O)N[C@@H](C)C(N)=O)NC(=O)[C@H](CC(N)=O)NC(=O)[C@H](Cc2ccccc2)NC(=O)[C@H](C)NC(=O)[C@H](CC(=O)O)NC(=O)CNC(=O)[C@H]([C@@H](C)CC)NC1=O)[C@@H](C)CC
notes: also called Ac-IWIAAibALR$r8IGDAFN$YYA-NH2
B8: SEQ ID NO: 1714 (peptide)
peptide: Ac-IW[Ac6c]AQALR[R8]IGDAFN[S5]YYA-NH2
modifications: staple 9-16
SMILES: CC[C@H](C)[C@H](NC(C)=O)C(=O)N[C@@H](Cc1c[nH]c2ccccc12)C(=O)NC1(C(=O)N[C@@H](C)C(=O)N[C@@H](CCC(N)=O)C(=O)N[C@@H](C)C(=O)N[C@@H](CC(C)C)C(=O)N[C@@H](CCCNC(=N)N)C(=O)N[C@]2(C)CCCCCCC=CCCC[C@@](C)(C(=O)N[C@@H](Cc3ccc(O)cc3)C(=O)N[C@@H](Cc3ccc(O)cc3)C(=O)N[C@@H](C)C(N)=O)NC(=O)[C@H](CC(N)=O)NC(=O)[C@H](Cc3ccccc3)NC(=O)[C@H](C)NC(=O)[C@H](CC(=O)O)NC(=O)CNC(=O)[C@H]([C@@H](C)CC)NC2=O)CCCCC1
notes: also called Ac-IWAc6cAQALR$r8IGDAFN$YYA-NH2
B9: SEQ ID NO: 1715 (peptide)
peptide: Ac-IW[Ac5c]AQALR[R8]IGDAFN[S5]YYA-NH2
modifications: staple 9-16
SMILES: CC[C@H](C)[C@H](NC(C)=O)C(=O)N[C@@H](Cc1c[nH]c2ccccc12)C(=O)NC1(C(=O)N[C@@H](C)C(=O)N[C@@H](CCC(N)=O)C(=O)N[C@@H](C)C(=O)N[C@@H](CC(C)C)C(=O)N[C@@H](CCCNC(=N)N)C(=O)N[C@]2(C)CCCCCCC=CCCC[C@@](C)(C(=O)N[C@@H](Cc3ccc(O)cc3)C(=O)N[C@@H](Cc3ccc(O)cc3)C(=O)N[C@@H](C)C(N)=O)NC(=O)[C@H](CC(N)=O)NC(=O)[C@H](Cc3ccccc3)NC(=O)[C@H](C)NC(=O)[C@H](CC(=O)O)NC(=O)CNC(=O)[C@H]([C@@H](C)CC)NC2=O)CCCC1
notes: also called Ac-IWAc5cAQALR$r8IGDAFN$YYA-NH2
B10: SEQ ID NO: 1723 (peptide)
peptide: Ac-[Aib]WIAAALR[R8]IGDAFN[S5]YYA-NH2
modifications: staple 9-16
SMILES: CC[C@H](C)[C@H](NC(=O)[C@H](Cc1c[nH]c2ccccc12)NC(=O)C(C)(C)NC(C)=O)C(=O)N[C@@H](C)C(=O)N[C@@H](C)C(=O)N[C@@H](C)C(=O)N[C@@H](CC(C)C)C(=O)N[C@@H](CCCNC(=N)N)C(=O)N[C@]1(C)CCCCCCC=CCCC[C@@](C)(C(=O)N[C@@H](Cc2ccc(O)cc2)C(=O)N[C@@H](Cc2ccc(O)cc2)C(=O)N[C@@H](C)C(N)=O)NC(=O)[C@H](CC(N)=O)NC(=O)[C@H](Cc2ccccc2)NC(=O)[C@H](C)NC(=O)[C@H](CC(=O)O)NC(=O)CNC(=O)[C@H]([C@@H](C)CC)NC1=O
notes: also called Ac-AibWIAAALR$r8IGDAFN$YYA-NH2
B11: SEQ ID NO: 1655 (peptide)
peptide: IWIAQALXAIGDAFNAYYA
modifications: Ac- at N-terminus; -NH2 at C-terminus; $r8 at 9 and $ at 16 joined by all-carbon crosslinker; Cit (citrulline) at 8
B12: SEQ ID NO: 1767 (peptide)
peptide: Ac-IWIAQA[αMeL]R[R8]IGDAFN[S5]YYA-NH2
modifications: staple 9-16
SMILES: CC[C@H](C)[C@H](NC(C)=O)C(=O)N[C@@H](Cc1c[nH]c2ccccc12)C(=O)N[C@H](C(=O)N[C@@H](C)C(=O)N[C@@H](CCC(N)=O)C(=O)N[C@@H](C)C(=O)N[C@@](C)(CC(C)C)C(=O)N[C@@H](CCCNC(=N)N)C(=O)N[C@]1(C)CCCCCCC=CCCC[C@@](C)(C(=O)N[C@@H](Cc2ccc(O)cc2)C(=O)N[C@@H](Cc2ccc(O)cc2)C(=O)N[C@@H](C)C(N)=O)NC(=O)[C@H](CC(N)=O)NC(=O)[C@H](Cc2ccccc2)NC(=O)[C@H](C)NC(=O)[C@H](CC(=O)O)NC(=O)CNC(=O)[C@H]([C@@H](C)CC)NC1=O)[C@@H](C)CC
notes: Row prints Ac-IWIAQAAmLR$r8IGDAFN$YYA-NH2

Molecular target: BCL-XL (UniProt Q07817 1-209)
Test: Ki table, method not stated

BCL-XL, sequence (Q07817 1-209): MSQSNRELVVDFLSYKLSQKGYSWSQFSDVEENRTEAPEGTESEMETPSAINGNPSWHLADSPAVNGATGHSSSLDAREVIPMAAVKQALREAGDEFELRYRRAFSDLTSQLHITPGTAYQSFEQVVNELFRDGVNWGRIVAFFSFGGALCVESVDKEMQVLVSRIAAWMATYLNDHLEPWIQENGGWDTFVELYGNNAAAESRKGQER

Binder	Ki [nM]
B1	33.9
B2	36.3
B3	20.5
B4	8
B5	17.4
B6	83.5
B7	59
B8	7.7
B9	8.4
B10	20.3
B11	109

Molecular target: BCL-2 (UniProt P10415 1-217, limits assumed)
Test: Ki table, method not stated

BCL-2, sequence (P10415 1-217 limits assumed): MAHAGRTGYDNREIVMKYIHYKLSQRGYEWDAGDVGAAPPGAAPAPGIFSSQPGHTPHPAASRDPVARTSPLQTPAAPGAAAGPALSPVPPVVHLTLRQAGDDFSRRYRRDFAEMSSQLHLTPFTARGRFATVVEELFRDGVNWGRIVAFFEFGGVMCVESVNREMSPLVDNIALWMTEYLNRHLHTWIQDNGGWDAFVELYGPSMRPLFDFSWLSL

Binder	Ki [nM]
B1	76.7
B2	41.1
B3	39.1
B4	280
B5	70.6
B6	97.9
B7	120
B8	25.7
B9	68.2
B10	56
B11	212

Molecular target: T1, MCL-1 (UniProt Q07820 172-327, limits assumed)
T1 construct: also called Myeloid cell leukemia 1
Test: Ki table, method not stated
T1 sequence (Q07820 172-327 limits assumed): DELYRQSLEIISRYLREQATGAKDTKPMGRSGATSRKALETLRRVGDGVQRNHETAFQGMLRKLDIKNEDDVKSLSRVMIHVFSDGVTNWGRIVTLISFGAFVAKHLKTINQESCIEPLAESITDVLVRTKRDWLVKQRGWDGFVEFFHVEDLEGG

Binder	Ki [nM]
B1	6.2
B2	3
B3	9.8
B4	83.7
B5	9.9
B6	42.5
B7	5.5
B8	10.4
B9	8.9
B10	4
B11	7.5

Molecular target: T2, MCL-1 (UniProt Q07820 172-327, limits assumed)
T2 construct: Target of the Ki columns; also called Myeloid cell leukemia 1
Test: Ki; method not stated; unit not printed (nM per Table 6)
T2 sequence (Q07820 172-327 limits assumed): as above

Binder	Ki [nM]
B12	86.6
